Our source for the koff and Kd values is publication PMC11117730 (2024).

Where two headings read alike, the source gives them in different places.

Common to all, as to test: SPR
For orientation: SPR reads the build-up and loss of mass on a sensor chip optically.

The target in one assay is T1, mouse IL-33 (mouse, UniProt Q8BVZ5 1-266).
T1 chain: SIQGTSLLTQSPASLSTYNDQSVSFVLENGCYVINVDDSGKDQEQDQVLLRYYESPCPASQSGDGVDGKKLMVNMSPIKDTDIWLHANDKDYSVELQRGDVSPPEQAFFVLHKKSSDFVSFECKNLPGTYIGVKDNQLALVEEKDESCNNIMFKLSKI

In assay [1] the target is T2, anti-IL-17A-sST2 (mouse, UniProt P14719 27-332).
Another assay deals with anti-IL-17A.
The target in assay [2] is T2, anti-IL-17A-sST2. The source holds these as a separate data set.

B1: sST2-Fc (Fc fusion)
chain: SKSSWGLENEALIVRCPQRGRSTYPVEWYYSDTNESIPTQKRNRIFVSRDRLKFLPARVEDSGIYACVIRSPNLNKTGYLNVTIHKKPPSCNIPDYLMYSTVRGSDKNFKITCPTIDLYNWTAPVQWFKNCKALQEPRFRAHRSYLFIDNVTHDDEGDYTCQFTHAENGTNYIVTATRSFTVEEKGFSMFPVITNPPYNHTMEVEIGKPASIACSACFGKGSHFLADVLWQINKTVVGNFGEARIQEEEGRNESSSNDMDCLTSVLRITGVTEKDLSLEYDCLALNLHGMIRHTIRLRRKQPIDHR
In the assay with mouse IL-33, B1 displayed a koff of 0.000199 s⁻¹.

B2: mouse IL-33 (ligand)
chain: MRPRMKYSNSKISPAKFSSTAGEALVPPCKIRRSQQKTKEFCHVYCMRLRSGLTIRKETSYFRKEPTKRYSLKSGTKHEENFSAYPRDSRKRSLLGSIQAFAASVDTLSIQGTSLLTQSPASLSTYNDQSVSFVLENGCYVINVDDSGKDQEQDQVLLRYYESPCPASQSGDGVDGKKLMVNMSPIKDTDIWLHANDKDYSVELQRGDVSPPEQAFFVLHKKSSDFVSFECKNLPGTYIGVKDNQLALVEEKDESCNNIMFKLSKI
Consider B2, for which the off-rate constant (koff) in the assay with anti-IL-17A-sST2 [1] worked out at 0.000143 s⁻¹.

B3: mouse IL-17A (protein)
chain: AAIIPQSSACPNTEAKDFLQNVKVNLKVFNSLGAKVSSRRPSDYLNRSTSPWTLHRNEDPDRYPSVIWEAQCRHQRCVNAEGKLDHHMNSVLIQQEILVLKREPESCPFTFRVEKMLVGVGCTCVASIVRQAA
As to B3, the Kd in the assay with anti-IL-17A is 0.0265 nM; in the assay with anti-IL-17A-sST2 [2], 0.0457 nM. The koff in the assay with anti-IL-17A was 1.57e-05 s⁻¹; with anti-IL-17A-sST2 [2] it was 2.17e-05 s⁻¹.

By koff is commonly meant a measure of how fast the partners let go of each other. High values mean a short-lived complex, low ones a long-lived complex. A word on the Kd: it is the concentration at which binding is half-saturated. A higher Kd goes with a looser complex.
